These results are taken from the supplement of paper PMC12042874.

± gives the uncertainty stated by the source.

This series is described as follows: amyloid nucleation score (Sup35N fusion, yeast selection) (log enrichment); library NNK2; higher = more nucleation; inactive = no reads after selection. The procedure, abridged:
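Yeast lacking psi expressed peptides of 20 random codons fused to Sup35N, received 100 μM copper sulfate for 24 hours, and were then grown for 7 days at 30°C on medium lacking adenine and uracil. Illumina sequencing of input and output plasmid inserts provided the reads. Nucleation scores are DiMSum log enrichments of output over input, centred on the mode of non-aggregating sequences. Any sequence with under 100 input reads was excluded.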
LGISLPIEVLSFSLSMARCI: the amyloid nucleation score is -0.408 ± 0.45.
Consider LGLDFLCIRYSGFKCTTF, for which the amyloid nucleation score came out at 2.34 ± 0.14.
As to LGLMLIDLIWLRRYIYSWVR, the amyloid nucleation score stood at 0.338 ± 0.34.
LGMFSYIS showed an amyloid nucleation score of 0.105 ± 0.44.
LGNIHIWTSV showed an amyloid nucleation score of -1.53 ± 0.49.
LGSGVILLVY: the amyloid nucleation score is -0.643 ± 1.
As for LGSVGFAVWG, the amyloid nucleation score came to 0.17 ± 0.46.
For the substance LGSVYRQGSEGGWATYLNTY, the amyloid nucleation score result was “inactive”.
Substance LGTFKGKSEGPVV had an amyloid nucleation score of 0.616 ± 0.64.
In turn, LGTIGYVDCFIDSITCYMVL came in with an amyloid nucleation score of 7.953 ± 0.028.
Next, LGTVRYLS: 0.399 ± 0.41; LGVTLFFQGDSTTRWDLYPV: “inactive”.
For the substance LGVVWLS, the amyloid nucleation score is -0.405 ± 0.3.
For LGWQPNMWLISFISVSY, the amyloid nucleation score was -0.81 ± 0.64.
For LGYCGM, the amyloid nucleation score entry is “inactive”.
Substance LGYCSSSILCPCCHKILFDA registered an amyloid nucleation score of -0.521 ± 0.21.
In the case of LHCLRDIIKRNKDSFPQMWG, the amyloid nucleation score was -0.607 ± 0.33.
The value for LHGSGMENALSVPDMEQFPA was -0.159 ± 0.63; that for LHLRNVMVQ was -0.681 ± 0.31; that for LHSSSHVGGYSVGSRSFIHG was 0.294 ± 1.1.
LHSYPVKYGSRKDTRAKCGG registered an amyloid nucleation score of 0.605 ± 0.29.
Regarding LIADSCFFIQGDHPMLSELY, the amyloid nucleation score amounted to 0.888 ± 0.32.
LIDLKGQRSHGVTKGLTDFP came in with an amyloid nucleation score of -0.406 ± 0.36.
In turn, LIFNYRVFLSFSW showed an amyloid nucleation score of -0.356 ± 1.1.
Next, LIFYGSCIFQRFRIGVLSSG: -0.09 ± 0.65; LIGCLEQG: -0.156 ± 0.56; LIGIYLPWSL: -0.735 ± 0.45.
In turn, LIGVMGRCPGVLHLRSFVRD registered an amyloid nucleation score of 0.163 ± 0.37.
For the substance LILLNFTADSRGRRMLCCAW, the amyloid nucleation score was -0.584 ± 0.76.
Take LILRGDS: the amyloid nucleation score was -0.913 ± 0.4.
LILWRA gave an amyloid nucleation score of 0.456 ± 0.39.
The value for LIMRIVWGGLQDQGSVRSSR was 0.855 ± 0.35; that for LIRVILDGGKGKAGNTWVLQ was 5.17 ± 0.098.
As for LIRVYDSDATTIDRLGVCRW, the amyloid nucleation score came to 0.726 ± 0.35.
Regarding LITFLCFYHLKHYGLHTVGW, the amyloid nucleation score was -1.03 ± 0.36.
LITRVSSYCCWCLGFTIWAL gave an amyloid nucleation score of -0.77 ± 1.
Consider LIVCLFISFFAYELCYESAF, for which the amyloid nucleation score is 0.403 ± 0.62.
For the substance LIVSPCN, the amyloid nucleation score was -0.059 ± 0.26.
The value for LIYPANVWFGFYAEAGEVAQ was 4.21 ± 0.044; that for LIYVDFHGIQVVCLYLCVHC was “inactive”.
LIYWCHAFVKT displayed an amyloid nucleation score of -1.27 ± 0.53.
The value for LKGYSQVMRSSIGLWCFRKD was -0.547 ± 0.49; that for LKLGFRIQLPLLSYGYPFLW was -1.29 ± 0.39.
Next, LKLTVPKDRRKKMKGRVALI: -0.064 ± 0.76; LKTIMCFCQIYLFNSDPVHF: 3.37 ± 0.11.
LLAKSLDTGILD had an amyloid nucleation score of 6.487 ± 0.025.
Take LLALSFLTVVFEFCLNSMMG: the amyloid nucleation score was -1.28 ± 0.62.
Take LLCGRYGMECFTRA: the amyloid nucleation score result was “inactive”.
Consider LLDSPEWWYVLCATNWVYYM, for which the amyloid nucleation score came out at 2.88 ± 0.096.
LLFIVCRISLNIVGQVA returned an amyloid nucleation score of -0.137 ± 0.53.
In the case of LLFSLYDYRQIDFNSGHRHV, the amyloid nucleation score is 4.37 ± 0.056.
The substance LLGCYNYSFRWDSRASASR showed an amyloid nucleation score of -0.207 ± 0.55.
Next, LLGPYKAHTQKYCWSSYV: -0.287 ± 0.56.
As to LLGWPRLYLWTE, the amyloid nucleation score is 0.402 ± 0.42.
Next, LLHDDVNTYLVRTVRR: 0.322 ± 0.31; LLINDKCPYERMAGQWLFGS: 0.268 ± 0.65; LLKFRVCPW: 4.5 ± 0.086.
Take LLKLTYTSM: the amyloid nucleation score is 7.032 ± 0.037.
For the substance LLLFVILCNSNWLCWPR, the amyloid nucleation score entry was “inactive”.
LLLINFSYNALTKVRSEEYL yielded an amyloid nucleation score of 3.86 ± 0.084.
The substance LLLINLLFSASKLALSM returned an amyloid nucleation score of -0.679 ± 1.1.
Substance LLLKPMFRVIILMYARVCMY came in with an amyloid nucleation score of -1.08 ± 1.1.
Turning to LLLLTHYEAITR, the amyloid nucleation score stood at 0.305 ± 0.43.
With LLLYEMFSKVGLLFPSYFKY, the amyloid nucleation score entry was “inactive”.
The substance LLMFAMYIQIRLLSTATYIV gave an amyloid nucleation score of -0.564 ± 0.79.
With LLMQYPSLVMVAGRFLVANL, the amyloid nucleation score was -0.082 ± 0.5.
On to LLMRVFRGESR, for which the amyloid nucleation score was -1.02 ± 0.49.
Next, LLMVFHTTKY: 6.665 ± 0.026.
Consider LLNALCMWMPM, for which the amyloid nucleation score turned out to be 6.876 ± 0.051.
As for LLQILTNQKVNGTCSQRF, the amyloid nucleation score was -1.48 ± 0.78.
Regarding LLQIQCICEGMRQWMLKYYY, the amyloid nucleation score was -0.994 ± 1.1.
For the substance LLSECWLESGPSGASTC, the amyloid nucleation score came out at 1.5 ± 0.5.
On to LLSNFGHVRNSSDKLLLFWS, for which the amyloid nucleation score came out at 2.9 ± 0.18.
LLSSSTIIHLRMCMIHGSFW: the amyloid nucleation score was determined as 0.791 ± 0.67.
Take LLSVVKCACEMRTTKAVIGA: the amyloid nucleation score stood at 2.05 ± 0.35.
The value for LLSWVHR was -0.357 ± 0.5; that for LLTGQALFGRASY was 0.122 ± 0.37.
The value for LLVKTNYVCGALTNGRMNGT was 2.12 ± 0.081; that for LLWNVGIVYSHMQVFVMRRY was 1.23 ± 0.13.
Next, LLYEPFVWVYKHRYVVTGYS: -1.76 ± 0.76.
LLYTCFGVREVQMVTYRNAS registered an amyloid nucleation score of 4 ± 0.063.
Next, LMAKLPAINEYPPF: -0.04 ± 0.56; LMATHQPGTFMAGCTTGSEH: 0.914 ± 0.18; LMGLFREFFRYILFGCINQF: -0.419 ± 0.27.
Consider LMILRRVVKEPESANKFCGY, for which the amyloid nucleation score entry is “inactive”.
Next, LMISCSYICSVVDYHLMGGS: 3.55 ± 0.06.
LMNMSSRSTQCNNQG registered an amyloid nucleation score of -0.139 ± 0.55.
LMRRHRA had an amyloid nucleation score of 0.954 ± 0.25.
The value for LMSMVCSESL was -0.555 ± 0.35; that for LMSSLFPLSSACY was -0.545 ± 0.38; that for LMYFMNGL was 0.045 ± 0.63.
As for LMYVGFTRMRKKINRKVYLV, the amyloid nucleation score came out at 3.19 ± 0.1.
LNCFYEPTSGSKLYTLRPAF showed an amyloid nucleation score of -0.107 ± 1.
Take LNCVFLSLSQTGGSCELDFV: the amyloid nucleation score was 7.007 ± 0.043.
The substance LNFDLLTMFWT yielded an amyloid nucleation score of 0.182 ± 0.79.
LNGYATLCYPVILSRIVYGP displayed an amyloid nucleation score of 4.03 ± 0.043.
LNIYF: the amyloid nucleation score came out at 3.13 ± 0.11.
LNLIHR registered an amyloid nucleation score of 0.153 ± 0.79.
For LNLILIDFKTSRCVERPFRE, the amyloid nucleation score turned out to be 7.052 ± 0.051.
In turn, LNNGCCMSLPVPTRPDDRDK yielded an amyloid nucleation score of 0.356 ± 0.8.
Substance LNPRNQCERRCFSVSGLKWY gave an amyloid nucleation score of -0.899 ± 0.64.
Next, LNRVQLNLRGQRITLSHYQI: -0.536 ± 1.1.
As for LNSFVPVDSRVVTSAEWYAG, the amyloid nucleation score was 0.889 ± 0.23.
For the substance LNVHCAGCCANWPLC, the amyloid nucleation score is 9.041 ± 0.026.
For LNVLISYMHRVWRYIVSAR, the amyloid nucleation score came to 0.362 ± 0.35.
Turning to LNVTSLLIVRLRCVFLHPTD, the amyloid nucleation score came to 2.15 ± 0.44.
Next, LNVWRLFRRWWEWRRDCEFA: 0.435 ± 0.37.
LNYALLVEFCLCLNPDNNSS gave an amyloid nucleation score of 8.57 ± 0.055.
In turn, LPFLPSCVVEKQVEYVWIRG showed an amyloid nucleation score of 0.332 ± 0.25.
Next, LPLWLIDIALFLSFCIVGQS: -0.369 ± 1.1; LPQVPRVFRS: -0.06 ± 1.1.
LPTIGVWLTRPRVCFLSYSV: the amyloid nucleation score came to 0.045 ± 0.63.
As for LPVQAYAS, the amyloid nucleation score entry is “inactive”.
The substance LPWHICLVHPR had an amyloid nucleation score of 1.81 ± 0.078.
Substance LPWLWQLTFPFWA showed an amyloid nucleation score of 0.582 ± 0.37.
LPYRSCLWFFFDIRNDVRVG returned an amyloid nucleation score of 2.25 ± 0.12.
Turning to LQASDKGKLLRTIPLRHYVP, the amyloid nucleation score turned out to be 1.02 ± 0.33.
The substance LQDAHHSVVCVRQSCYERLG yielded an amyloid nucleation score of -0.187 ± 0.65.
LQDLTWRLCFKVWCDHSPEN: the amyloid nucleation score turned out to be 4.08 ± 0.091.
As for LQKDYTSMH, the amyloid nucleation score entry is “inactive”.
Regarding LQRYRFSNACI, the amyloid nucleation score result was “inactive”.
On to LQVTPIIPYCVSELYMYGGM, for which the amyloid nucleation score is -0.097 ± 0.79.
The substance LRAGTKWTNPFEQVYMTWCG had an amyloid nucleation score of 0.044 ± 1.1.
LRAHFWGDD had an amyloid nucleation score of 0.335 ± 0.31.
Consider LRFCYKEATV, for which the amyloid nucleation score is 0.016 ± 0.65.
In turn, LRFLVGVHAAYYIHTS registered an amyloid nucleation score of -0.649 ± 0.79.
Next, LRFVEPTTCVWGRDLFGAHS: 0.545 ± 0.53; LRHWCE: 0.218 ± 0.18.
In the case of LRIVICT, the amyloid nucleation score was -1.63 ± 0.62.
Substance LRLGRLPFMRSISVTCKNEL had an amyloid nucleation score of 1.91 ± 0.32.
Regarding LRLLQVVGVCCSGTWVDGCW, the amyloid nucleation score amounted to 6.074 ± 0.04.
On to LRLTRVYSSYRESVKKKI, for which the amyloid nucleation score was determined as 0.418 ± 0.21.
Next, LRLTYSWSYSCLLITNQRQN: -0.009 ± 0.65; LRNDDIY: -0.533 ± 0.39.
Substance LRNLS came in with an amyloid nucleation score of -0.919 ± 1.
Substance LRRVFQISERRNKLWLYEEC yielded an amyloid nucleation score of 0.6 ± 0.74.
In turn, LRRYYQCGTRLLIRFRMLEV came in with an amyloid nucleation score of 1 ± 0.34.
In turn, LRSCSCIGKLDEEPGGFACA gave an amyloid nucleation score of -0.956 ± 0.78.
The substance LRTISCIITLVGWITASTKH gave an amyloid nucleation score of 0.124 ± 0.62.
Take LRVKKYTDFHELEVGLFFWL: the amyloid nucleation score result is “inactive”.
LRVWVTAFFFSVMMCEQMFQ: the amyloid nucleation score entry is “inactive”.
